Experimental data from patent US20140080766A1 (MIT, published 2014).

Biological target: C7LLO (CEA-binding Fn3 - listeriolysin O fusion protein)

B1: carcinoembryonic antigen (CEA) on HT-1080(CEA) and HT-29 cells (other, human, UniProt P06731 35-685, looked up)
chain: KLTIESTPFNVAEGKEVLLLVHNLPQHLFGYSWYKGERVDGNRQIIGYVIGTQQATPGPAYSGREIIYPNASLLIQNIIQNDTGFYTLHVIKSDLVNEEATGQFRVYPELPKPSISSNNSKPVEDKDAVAFTCEPETQDATYLWWVNNQSLPVSPRLQLSNGNRTLTLFNVTRNDTASYKCETQNPVSARRSDSVILNVLYGPDAPTISPLNTSYRSGENLNLSCHAASNPPAQYSWFVNGTFQQSTQELFIPNITVNNSGSYTCQAHNSDTGLNRTTVTTITVYAEPPKPFITSNNSNPVEDEDAVALTCEPEIQNTTYLWWVNNQSLPVSPRLQLSNDNRTLTLLSVTRNDVGPYECGIQNELSVDHSDPVILNVLYGPDDPTISPSYTYYRPGVNLSLSCHAASNPPAQYSWLIDGNIQQHTQELFISNITEKNSGLYTCQANNSASGHSRTTVKTITVSAELPKPSISSNNSKPVEDKDAVAFTCEPEAQNTTYLWWVNGQSLPVSPRLQLSNGNRTLTLFNVTRNDARAYVCGIQNSVSANRSDPVTLDVLYGPDTPIISPPDSSYLSGANLNLSCHSASNPSPQYSWRINGIPQQHTQVLFIAKITPNNNGTYACFVSNLATGRNNSIVKSITVSASGTSPGLSA
B1 showed a Kd of 4.09 nM.
